Laboratory results from patent publication US20250101129A1 (AJINOMOTO, published 2025).

B1: QET-Fc3K-PA48-Z34CM (peptide)
chain: QETRGNCAYHKGQIIWCTYHGGAAPAAPAPAAPAAPAPAAPAAPAPAAPAAPAPAAPAAPAPAAPAAPAPGGFNMQCQRRFYEALHDPNLNEEQRNARIRSIREEC
modifications: C-terminal -NH2 as printed in the 1st table; N-terminal Gln designed to be pyroglutamylated
B2: QET-Z34CM-PA48-Fc3K (peptide)
chain: QETFNMQCQRRFYEALHDPNLNEEQRNARIRSIREECGGAAPAAPAPAAPAAPAPAAPAAPAPAAPAAPAPAAPAAPAPAAPAAPAPGGRGNCAYHKGQIIWCTYH
modifications: C-terminal -NH2 as printed in the 1st table; N-terminal Gln designed to be pyroglutamylated
B3: QET-Fc3K-PA32-Z34CM (peptide)
chain: QETRGNCAYHKGQIIWCTYHGGAAPAAPAPAAPAAPAPAAPAAPAPAAPAAPAPGGFNMQCQRRFYEALHDPNLNEEQRNARIRSIREEC
modifications: C-terminal -NH2 as printed in the 1st table; N-terminal Gln designed to be pyroglutamylated
B4: QET-Z34CM-PA32-Fc3K (peptide)
chain: QETFNMQCQRRFYEALHDPNLNEEQRNARIRSIREECGGAAPAAPAPAAPAAPAPAAPAAPAPAAPAAPAPGGRGNCAYHKGQIIWCTYH
modifications: C-terminal -NH2 as printed in the 1st table; N-terminal Gln designed to be pyroglutamylated

Molecular target: T1, Fc protein of human IgG1 antibody (human, UniProt P01857-1 100-330 = IgG part, limits assumed)
T1 construct: domain: Fc; Immobilised on a CM5 chip by amine coupling at about 1400 RU; also called Fc region of an IgG1 antibody
Assay: SPR Biacore T200, 25 C, Fc of human IgG1 amine-coupled on CM5, peptide as analyte, single cycle kinetics

Kd [nM]	Binder
8.48	B1
8.98	B2
12.7	B3
7.91	B4
